Measurements published in paper PMC3919171.

Assays:
[1] = biological target: collagen VI monomer with the murine collagen VI α3 chain (N9-C5) carrying the R1061Q mutation (mouse | human (endogenous in SaOS-2)); assay: non-reducing agarose/polyacrylamide composite gel electrophoresis with immunoblot; culture medium (4-14 days) and cell extracts of transfected SaOS-2 cells, SDS loading buffer with 2 M urea, non-reducing, 0.5% agarose/2.4% polyacrylamide; detected with an antibody against the α3 C terminus; sizes from purified collagen VI as a standard; monomers to tetramers
[2] = biological target: collagen VI monomer with the wild-type murine collagen VI α3 chain (N9-C5) (mouse | human (endogenous in SaOS-2)) (UniProt P12109); assay: as above

stoichiometry N [1] | stoichiometry N [2] | Substance
4 | – | collagen VI monomer with the murine collagen VI α3 chain (N9-C5) carrying the R1061Q mutation (from UniProt P12109 20-1028; P12110 21-1019) (complex)
– | 4 | collagen VI monomer with the wild-type murine collagen VI α3 chain (N9-C5) (from UniProt P12109 20-1028; P12110 21-1019) (complex)
